T1: Biotin-SGSTLDLYHSNGYRARVRAVDG-NH2 (human, N-terminal biotin, C-terminal amide (-NH2))
T1 peptide: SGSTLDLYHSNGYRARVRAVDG

T2: Biotin-SGSTYSIFSHFREYEIAIRKV-NH2 (human, N-terminal biotin, C-terminal amide (-NH2))
T2 peptide: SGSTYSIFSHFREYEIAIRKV


Experiments:
[1] = biological target: T3, SNP variant L61V of human IL-10Rα extracellular domain fused to the Fc portion of human IgG1 (human); assay: ELISA with SNP variant Fc fusion
T3 construct: The entry already holds the change and includes the signal peptide; also called L61I; L611
T3 sequence (chain, as listed by the source L61V L61V limits assumed): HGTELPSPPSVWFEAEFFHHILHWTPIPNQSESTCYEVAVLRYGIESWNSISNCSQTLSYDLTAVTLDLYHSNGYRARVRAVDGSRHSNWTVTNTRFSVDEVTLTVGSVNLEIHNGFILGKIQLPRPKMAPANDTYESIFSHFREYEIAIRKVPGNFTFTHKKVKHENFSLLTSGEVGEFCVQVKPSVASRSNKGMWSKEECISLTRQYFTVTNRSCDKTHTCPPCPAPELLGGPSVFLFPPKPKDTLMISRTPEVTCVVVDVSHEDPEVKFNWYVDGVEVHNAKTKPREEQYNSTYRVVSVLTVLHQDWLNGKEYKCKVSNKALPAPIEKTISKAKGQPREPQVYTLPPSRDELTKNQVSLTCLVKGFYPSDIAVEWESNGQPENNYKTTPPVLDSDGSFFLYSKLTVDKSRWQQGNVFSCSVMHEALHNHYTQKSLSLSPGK

[2] = biological target: T4, SNP variant V113I of human IL-10Rα extracellular domain fused to the Fc portion of human IgG1 (human); assay: ELISA with SNP variant Fc fusion
T4 construct: The entry already holds the change and includes the signal peptide; also called V1131
T4 sequence (chain, as listed by the source V113I V113I limits assumed): as the sequence (chain, as listed by the source L61V L61V limits assumed) above, with V40L, V92I counted along it

[3] = biological target: T5, SNP variant S159G of human IL-10Rα extracellular domain fused to the Fc portion of human IgG1 (human); assay: ELISA with SNP variant Fc fusion
T5 construct: The entry already holds the change and includes the signal peptide
Target sequence in this assay (chain, as listed by the source S159G S159G limits assumed): as the sequence (chain, as listed by the source L61V L61V limits assumed) above, with V40L, S138G counted along it

[4] = biological target: T6, SNP variant R212E of human IL-10Rα extracellular domain fused to the Fc portion of human IgG1 (human); assay: ELISA with SNP variant Fc fusion
T6 construct: The entry already holds the change and includes the signal peptide
T6 sequence (chain, as listed by the source R212E R212E limits assumed): as the sequence (chain, as listed by the source L61V L61V limits assumed) above, with V40L, R191E counted along it

[5] = biological target: T7, SNP variant V233M of human IL-10Rα extracellular domain fused to the Fc portion of human IgG1 (human); assay: ELISA with SNP variant Fc fusion
T7 construct: The entry already holds the change and includes the signal peptide
T7 sequence (chain, as listed by the source V233M V233M limits assumed): as the sequence (chain, as listed by the source L61V L61V limits assumed) above, with V40L, V212M counted along it

[6] = biological target: T1, Biotin-SGSTLDLYHSNGYRARVRAVDG-NH2; assay: ELISA, biotinylated peptide on Extravidin or Neutravidin plates
Method: (§1) Multiple ELISA methods were also employed to detect binding of anti-IL-10Rα antibodies to IL-10Rα, derived peptides. The biotinylated IL-10Rα derived peptides (SEQ ID NO. 86-87) were diluted to 1 μg/ml in TBS/BSA/0.05% Tween 20 and added to Extravidin or Neutravidin pre-coated ELISA plates (Pierce) for 2 hours at room temperature. After washing three times with TBS/BSA/0.05% Tween 20. The purified anti-human IL-10Rα antibodies were diluted in TBS/BSA/0.05% Tween 20 and added to the wells. The plates were incubated for 1 hour at room temperature. The plates were washed 3 times with TBS/0.05% Tween 20 and peroxidase-conjugated goat anti-human IgG (Fcγ specific), anti-rat IgG, or anti-mouse IgG detection antibodies (Jackson Immunoresearch) were added. Following 1 hour incubation at room temperature, the plates were washed and the TMB (Sigma) substrate was added and incubated at room temperature for 5 to 10 minutes. The reaction was stopped with H₂SO₄ (LabChem) and the optical density was measured at 450 nm using a microplate reader. An OD reading above background wells with no primary antibody is indicative of antibody binding to the peptides. […] The antibodies only bound the positive control biotinylated recombinant human IL-10Rα:hFc protein. […] Antibody binding was detected with species-specific anti-IgG-HRP secondary antibodies. […]

[7] = biological target: T2, Biotin-SGSTYSIFSHFREYEIAIRKV-NH2; assay: as above
Method: as §1

[8] = biological target: T1, Biotin-SGSTLDLYHSNGYRARVRAVDG-NH2; assay: dot blot on PVDF or nitrocellulose membrane
Method: (§2) Methods to detect antibody binding to peptides derived from the human IL-10Rα sequence: Multiple methods were employed to detect binding of anti-human IL-10Rα antibodies to peptides derived from the extracellular domain of human IL-10Rα that have been reported by Reineke, et al. (Reineke, et al., Protein Sci 7:951 (1998)) to be included in the IL-10 binding site of the receptor. The following amide synthesized peptides were tested: Ac-[…]-NH2, Ac-[…]-NH2, Ac-[…]-NH2, Ac-[…]-NH2, Ac-[…]-NH2 (SEQ ID NO. 81-85). In addition, the following biotinylated peptides were tested: Biotin-[…]-NH2, Biotin-[…]-NH2 (SEQ ID NO. 86-87). The amide peptides were synthesized by A&A Labs, LLC (San Diego, Calif.) and the biotinylated peptides were synthesized by GenScript (Piscataway, N.J.) both at >95% purity and reconstituted at 20 mg/ml in DMSO. In one assay design peptides were spotted at 5 μg/spot in PBS onto PVDF membranes or nitrocellulose membranes that had been prepared according to the manufacturer's instructions. The membranes were incubated with anti-IL-10Rα antibodies using standard Western blotting methods (e.g. Towbin, et al., Proc Natl Acad Sci 76:4350 (1979)). Native human IL-10Ra:hFc and heat denatured human IL-10Ra:hFc were also spotted at 1 μg/spot on the membranes as controls. Negative controls included an irrelevant peptide and isotype controls. […] None of the antibodies bound to the spotted denatured protein or to any of the peptides derived from the human IL-10Ra extracellular domain or the irrelevant peptide.

[9] = biological target: T2, Biotin-SGSTYSIFSHFREYEIAIRKV-NH2; assay: dot blot on PVDF or nitrocellulose membrane
Method: as §2

[10] = biological target: T6, SNP variant R212E of human IL-10Rα …; assay: ELISA, coated SNP variant Fc fusion R212E [E]
[11] = biological target: T5, SNP variant S159G of human IL-10Rα …; assay: ELISA, coated SNP variant Fc fusion S159G [D]

Row | binding result [1] | binding result [2] | binding result [3] | binding result [4] | binding result [5] | binding result [6] | binding result [7] | binding result [8] | binding result [9] | binding result [10] | binding result [11] | Binder
1 | binds | binds | binds | binds | binds | no binding (tested: 1 µg/ml peptide) | no binding (tested: 1 µg/ml peptide) |  |  |  |  | 136C5 (antibody, V domains shown, Hybridoma antibody, human IgG1, kappa light chain; also called human anti-human IL-10Rα monoclonal antibody 136C5; hybridoma deposit PTA-9131) VH: EVQLVESGGGLVQPGGSLRLSCAASGFTFSSYSMNWVRQAPGKGLEWVSYISTGSSTIYYADSVKGRFTISRDNAKNSLYLQMNSLRDEDTAVYYCARENYYGSGSYEDYFDYWGQGTLVTVSS VL: EIVLTQSPATLSLSPGERATLSCRASQSVSSYLAWYQQKPGQAPRLLIYDASNRATGIPARFSGSGSGTDFTLTISSLEPEDFAVYYCQQRSNWPIFTFGPGTKVDIK
2 |  |  |  |  |  |  |  | no binding (tested: 5 µg/spot) | no binding (tested: 5 µg/spot) | binds | binds | 136C8 (antibody, V domains shown, Hybridoma antibody, human IgG2, kappa light chain; also called human anti-human IL-10Rα monoclonal antibody 136C8; hybridoma deposit PTA-9132) VH: EVQLVESGGGLVQPGGSLRLSCAASGFTFSSYSMNWVRQAPGKGLEWVSYISTRSSTIYYADSVKGRFTISRDNAKNSLYLQMNSLRDEDTAVYYCARENYYGSGSYEDYFDYWGQGTLVTVSS VL: EIVLTQSPATLSLSPGERATLSCRASQSVSSYLAWYQQKPGQAPRLLIYDASNRATGIPARFSGSGSGTDFTLTISSLEPEDFAVYYCQQRSNWPIFTFGPGTKVDIK
